Substitutions are numbered along the chain they refer to.
B1: 234C9G5 (antibody, V domains shown)
VH: QAYLQQSGAELVRSGASVKMSCKASGYAFTSHNMHWVKQTPGQGLEWIGYISPGNGYTNYNQKFRGKATLTADTSSSTAYMQIGSLTSEDSAVYFCTRDYYGNSFAYWGQGTLVTVSA
VL: DIVMTQSPSSLTEKAGERVSMSCKSSQSLFNSGNQKNYLTWYQQKPGQPPKLLIYWASTRESGVPDRFTGSGSGTDFTLTISSVQAEDLAVYYCQNNYWFPFTFGAGTKLELK
B2: 260G9E8 (antibody, V domains shown)
VH: B1 VH with Y3D, A28T, T30A, S52Y, Y57G, N59K, R65T, G84T, T97A
VL: B1 VL with R18K, S22R, F30L, E87D, N97D, W99M
B3: 252F1B10 (antibody, V domains shown)
VH: B1 VH with A28T, S52Y, Y57G, R65K, G84N
VL: B1 VL with N97D, W99R, F100Y
B4: 243B4F2 (antibody, V domains shown)
VH: B1 VH with A28T, M34L, S52Y, Y57N, R65K, G84S
VL: B1 VL
B5: 243F6D2 (antibody, V domains shown)
VH: B1 VH with K23R, A28T, S52Y, Y57G, N59Y, R65K, G84S, T97A, A106V
VL: B1 VL with I2V, A15T, R18K, F30L, V84L, A86T, W99R, F100Y
B6: 257B1G9 (antibody, V domains shown)
VH: B1 VH with A28T, S52Y, Y57G, R65K, G84S
VL: B1 VL with K14R, N97D, W99R, F100Y
B7: 260F8A6 (antibody, V domains shown)
VH: B1 VH with K23R, A28T, S52Y, Y57N, N59Y, R65K, S77N, G84N, T97V, A106V
VL: B1 VL with I2V, A15T, R18K, F30L, T69I, V84L, A86T, W99M, F100Y
B8: 256C3D3 (antibody, V domains shown)
VH: B1 VH
VL: B1 VL
B9: 257F1E11 (antibody, V domains shown)
VH: B1 VH with A28T, M34I, G42R, S52Y, Y57G, R65K, G84S
VL: B1 VL with V91I, N97D, F100Y
B10: 257G7F7 (antibody, V domains shown)
VH: B1 VH with A28T, M34L, S52Y, Y57N, R65K, G84S
VL: B1 VL
B11: 242H12D6 (antibody, V domains shown)
VH: B1 VH with A28T, S52Y, Y57G, R65K, G84N
VL: B1 VL with N97D, W99R, F100Y
B12: 252E7C9 (antibody, V domains shown)
VH: QTYLQQSGAELVRSGASVKMSCRTSGYSFTSHNMHWVKQTPGQGLEWIGYIYPGNGGSYYNQKFKGKAILTADTSSSTAYMQISSLTSEDSAVYFCTRDYYGNSFVYWGQGTLVTVSA
VL: B1 VL with I2V, A15T, R18K, F30L, V84L, A86T, V91I, Y98F, W99R, F100Y
B13: 240D6F5 (antibody, V domains shown)
VH: B1 VH with A28T, S52Y, Y57G, R65K, T74P, G84N
VL: B1 VL with N97D, W99R, F100Y
B14: 234E1F12 (antibody, V domains shown)
VH: B1 VH with A28T, G42R, S52Y, Y57D, R65K, G84S
VL: B1 VL with N97A, F100Y
B15: 257G7B9 (antibody, V domains shown)
VH: B1 VH with A28T, M34L, S52Y, Y57N, R65K, G84S
VL: B1 VL
B16: 258D11C4 (antibody, V domains shown)
VH: B1 VH with A28T, T30S, S52Y, Y57G, R65K, G84S
VL: B1 VL with E61Q, N97D
B17: 235A10C9 (antibody, V domains shown)
VH: B1 VH with A28T, T30A, S52Y, G56S, Y57G, N59K, R65T, G84T, T97A
VL: B1 VL with R18K, S22R, F30L, E87D, N97D, W99M
B18: 194A2F7 (antibody, V domains shown)
VH: QIQLVQSGPELKKPGETVKISCKASGYTFTDYLIHWVKQAPGKGLKWMGWINTETGEPTYADDFKGRFALSLETSASTACLQINNLKNEDTATYFCARIYYGNSFDYWGQGTTLTVSS
VL: DIVMTQSPSSLPVTAGEKVTMTCKSSQNLLNSGNQKSYLTWYQQKPGQPPKLLIYWASTRETGVPDRFTGSGSGTDFTLTISSVQAEDLAVYYCQNAYRFPFTFGAGTRLELK
B19: 252C10F6 (antibody, V domains shown)
VH: QVHLKQSGRGLVQPSQSLSITCTVSGFSLPNYGVHWVRQPPGKGLEWLGVIWSGGNTDYNTVFKARLSITKDNSKSQVFFKMNSLQADDTAIYYCARNLYGNYDYAMDYWGQGTSVTVSS
VL: DIVMTQSPATLSVTPGDRVSLSCRASQSISDYLHWYQQKSHESPRLLIKYASQSISGIPSRFSGSGSGSEFTLSINSVEPEDVGVYYCQNGHSFPFTFGSGTKLEIK
B20: 234B9D4 (antibody, V domains shown)
VH: EIQLQQSGPDLMKPGSSVKISCTASGYSFTSYYIHWVKQSHGKTLEWIGYIDPFNGGTRYNQKFEGKAALTVDKSSTTAYMHLTSLTSDDSAVYYCASLRFFTYWGQGTLVTVSA
VL: DIVMTQSPSSLTVTAGEKVTMTCKSSQSLLNSGNQENYLTWYQQKPGQPPKLLISRASTRQSGVPDRFTGSGSGTDFTLTISSVQAEDLAVYYCQNDYSYPLTFGAGTKLELK
B21: 185F2G12 (antibody, V domains shown)
VH: QAYLQQSGAELVRSGASVKMSCKASGYTFTSYNMHWVRQTPGQGLEWIGYIYPGNGGTNYSQKFKGKASLTADTSSTTAYMQISSLTSEDSAVYFCATGRGFAYWGQGTLVTVSA
VL: B20 VL with M21L, T22S, L30F, S32T, E36K, S55F, Q61E, S73F, Y98F
B22: 186F7E10 (antibody, V domains shown)
VH: EVMLVESGGGLVKPGGSLKLSCAASRFTLNSYAMSWIRQTPEKKLEWVATITSGVSHTYYFDSVKGRFTISRDTAKNTLNLQMNSLRSEDTAVYYCARLYYGNSLDYWGQGTSVTVSS
VL: B20 VL with M21V, T22S, E36K, S55Y, R56W, Q61E, A86S, D97N, S99I, K109T
B23: 240A8E7 (antibody, V domains shown)
VH: QAYLQQSGAELVRSGASVKMSCKASGYTFTNYNIHWVKQTPGQGLEWIGYIYPGNGDNYYNQKFKGKATLTADTSSSTAYMQISSLTSEDSAVYFCARDYYGNSFAYWGQGTLVTVSA
VL: B20 VL with I2V, T22N, E36K, L52M, S55Y, R56W, Q61E, V91I, S99Y, L102F
B24: 259B4D4 (antibody, V domains shown)
VH: EIQLQQSGPELMKPGASVRISCKASGYSFTSYYMHWMKQSHVKSLEWIGYIDPFNGNTRYNQKFKDKATLTVDKSSTTAYMHLSSLTSEDSAVYFCASLRFFAYWGQGTLVTVSA
VL: B20 VL with T22S, K24N, E36K, S55Y, R56W, T59S, Q61E, S83T, Y100F, K109R
B25: 241H10A1 (antibody, V domains shown)
VH: QVQLQQSGAELVKPGASVKLSCKASGYTFTSFGINWLRQRPEQGLEWIGWIFPGDGNSKYNENFKGKATLTTDKSSSTAYMQVTRLTSEDSAVYFCARFYYGNSFANWGQGTLVTVSA
VL: B20 VL with T22S, E36K, S55Y, R56W, S58A, Q61E, S99F, L102F, A106G
B26: 242F5H2 (antibody, V domains shown)
VH: EVMLVESGGGLVKPGGSLKLSCAASGFTFSSYTVSWVRQTPEKRLEWVATSIVGSTYTYFPDSVKGRFTISRDFAKNTLFLQMSSLRSEDTAMYYCSRLGRGNAMDYWGQGTSVSVSS
VL: DIVMTQSPSSLTVTAGEKVTLNCRSSQSLLNSGNQKNYLTWYQQKPGQPPKLLIYWASTRESGVPDRFTGSGSGTDFTLTISSVQADDLAVYYCQNGYSYPFTFGSGTKLEIK
B27: 246B5F2 (antibody, IgM, V domains shown)
VH: EVMLVESGGGLMKPGGSLKLSCAASEFTFSNYAMSWVRQTPEKRLEWVATISSGRSSTYYPDSVKGRFTISRDNAKNTLYLQMSSLRSEDTAMYYCAGLGRGNAMEYWGQGTSVTVSS
VL: B26 VL with N22S, R24K, T78I, S82N, D87E, G97A
B28: 254A8D5 (antibody, V domains shown)
VH: B26 VH
VL: B26 VL
B29: 248E6A7 (antibody, V domains shown)
VH: B12 VH with T2A, T24A, S28T, G57N, S58T, G66V, I69T, S77N, S84N, T97V
VL: DVVMTQSPSSLTEKTGEKVTMTCKSSQSLLNSGNQKNYLAWYQQKPGQPPKLLIYWASTRESGVPDRFIGSGSGTDFTLTISSLQTEDLAVYYCQNNYMYPFTFGAGTKLELK

These binders were tested against Claudin18.2-His protein (human) (assay: indirect ELISA on coated Claudin18.2-His).

EC50 [µg/mL] | Binder
0.0387 | B1
0.0358 | B2
0.00723 | B3
0.0125 | B4
0.0346 | B5
0.00793 | B6
0.0151 | B7
0.0133 | B8
0.0262 | B9
0.0198 | B10
0.0164 | B11
0.00869 | B12
0.00792 | B13
0.105 | B14
0.00978 | B15
0.0153 | B16
0.0355 | B17
0.0438 | B18
1.66 | B19
0.0405 | B20
0.0193 | B21
0.0109 | B22
0.0145 | B23
0.0197 | B24
0.0221 | B25
0.0193 | B26
0.141 | B27
0.0252 | B28
0.00969 | B29
